Assay results published in patent US20180284123A1 (CALIFORNIA INSTITUTE OF TECHNOLOGY, published 2018).
Ends that are not written are not given here.

How the values were obtained:
[1] = biological target: T1, His6-tagged human KRas Isoform 4B (residues 1-169) (human, UniProt P01116-2 1-169); assay: B-RAP surface immunofluorescence assay; ligand on barcode via SAC-DNA, KRas titrated 0-400 µM
T1 construct: Expressed in E. coli BL21(DE3), purified on Ni-NTA; also called KRas protein; WT KRas protein; not shown: His6 tag from the PQE80 vector
Experimental: After extraction the data is background corrected. The background signal arises from (a) non-specific binding of the primary and secondary antibodies (independent of [KRas]), but can vary across different barcode stripes), and (b) non-specific binding of KRas protein ([KRas] dependent). Background (a) was assessed by measuring the average signal in the null protein well for each stripe. Background (b) was assessed by measuring the average fluorescence for the dummy ligand (Biotin* probe) that was in each well. The background subtracted data was then graphed in Graphpad Prism 7 and fitted to a sigmoidal curve (Hill coefficient=1).
A pre-fabricated PDMS template was aligned onto the DNA barcode microchip, and the microchip was taped into a 10 cm petri dish. The wells on the platform were wet with 50 μL PBST before filling with blocking buffer and placing into a 37° C. incubator for 1 hr. Concurrently, 40 μL 1% BSA in PBS solutions containing 750 nM of a SAC-DNA conjugate and 3.75 μM of one biotinylated PCC ligand or biotin-A₂₀-Cy3 blank were prepared for each SAC-DNA conjugate. The biotinylated ligands were allowed to complex with the SAC protein for one hour before pooling the SAC-DNA-ligand solutions (final [SAC-DNA-ligand conjugates]=50 nM). The blocking buffer was aspirated and each well was loaded with the SAC-DNA-ligand conjugates cocktail for hybridization with the DNA barcode at 37° C. for one hour. The wells were washed with PBST (3×) before loading serially diluted solutions of KRas protein in protein buffer (0 to 400 μM). After shaking at RT for one hour, the wells were rinsed with PBST (5×), making sure to pipet up/down with the first addition of PB ST. A (100:1) dilution of CST rabbit anti-Ras Ab (#39655) in 1° ab buffer was added to each well before shaking at RT for one hour. After rinsing the wells with PBST (3×), the wells were loaded with a (200:1) dilution of Abcam goat anti-rabbit-Alexafluor 647 linked ab (ab150079) in 2° ab buffer before shaking at RT for one hour. A final rinse of the wells with PBST (3×) proceeded peeling off the PDMS slab from the barcode microchip and dipping the barcode into the following solutions: PBS, (1:1) PBS: MQ H₂O, MQ H₂O (2×). After being spun dry, the barcode was read on the Genepix (635 nm, PMT 600, PWR 40% (60 W); 532 nm, PMT 450, PWR 15% (23 W)).

[2] = biological target: T1, His6-tagged human KRas Isoform 4B …; assay: barcoded rapid assay microchip, fitted curves of FIG. 6B (Hill coefficient 1), triplicate
[3] = biological target: T1, His6-tagged human KRas Isoform 4B …; assay: multi-well sandwich ELISA; ligand on Neutravidin plate, KRas 0-300 µM; footnote b: poorly resolved
Experimental: (§1) A 96-well Pierce Neutravidin Plate was washed with binding buffer (3×5 minutes at RT) before loading plate with a 1 μM solution of either blank (biotin-PEG₅-NHAc) (singly) or biotinylated PCC ligand (in triplicate). The plate incubated for two hours before washing with binding buffer (3×5 minutes). Blocking buffer was added to each well and the plate blocked for one hour before undergoing washing with binding buffer (3×5 minutes). Each well was loaded with either binding buffer or KRas solution (0→300 μM), and the plate was incubated for 30 minutes. Plate washing with binding buffer (3×5 minutes) preceded incubating the plate with a (1000:1) dilution of 1° antibody (ab) rabbit anti-Ras (CST #3965) in ab buffer for thirty minutes. The plate was washed with binding buffer (3×5 minutes), loaded with a (2000:1) dilution of 2° ab goat anti-rabbit, HRP-linked ab (CST #7074) in ab buffer, and incubated for an additional thirty minutes. The plate was rinsed with binding buffer (3×5 minutes), TBS (1×5 minutes), loaded with a (1:1) mixture of TMB Peroxidase Solution and TMB Peroxidase Solution B, and developed with occasional agitation for 8-12 minutes. After quenching the enzymatic reaction with 1M H₂SO_{4(aq)} (100 μL) the plate was read at λ=450 nm within ten minutes. The data was double background corrected using the ab only absorbance and the dummy ligand absorbance, plotted using Prism GraphPad 7 (Sigmoidal 4PL mode with the Hill coefficient set=1), and an EC₅₀ value was calculated.

[4] = biological target: T1, His6-tagged human KRas Isoform 4B …; assay: cell-based or functional assay
[5] = biological target: T1, His6-tagged human KRas Isoform 4B …; assay: multi-well sandwich ELISA; ligand on Neutravidin plate, KRas 0-300 µM
Experimental: as §1

[6] = biological target: T1, His6-tagged human KRas Isoform 4B …; assay: B-RAP immunofluorescence, 10 µM KRas well, pixel-by-pixel along the barcode lane

| EC50 [1] [µM] | EC50 [2] [µM] | EC50 [3] [µM] | EC50 [5] [µM] | other results | Binder |
| --- | --- | --- | --- | --- | --- |
| 3.31 | 8.19 | 33.2 | – | IC50 of the intrinsic GTPase activity of KRas (GTPase-Glo, 10 µM KRas, four-hour incubation) [4]: 24 µM; IC50 of the intrinsic GTPase enzymatic activity of KRas [4]: ~20 µM | EGVPV (triazole (positions not given here); not fully specified (bridges); also: macrocycle closed by 1,4-triazole, propargylglycine click handle, other ring residues not given here, also called EGVPV) [L2] |
| 0.97 | 16.2 | 1.65 | – | – | HGIVG (triazole (positions not given here); not fully specified (bridges); also: 1,4-triazole macrocycle, ring places not given here, propargylglycine click handle, place not given here, biotinylated (biotin NovaTag resin), site not given here, It is one of two HPLC fractions of the same mass; also called HGIVG f1) [L1a] |
| 1.33 | 12.2 | 0.76 | – | – | HGIVG (triazole (positions not given here); not fully specified (bridges); also: 1,4-triazole macrocycle, ring places not given here, propargylglycine click handle, place not given here, biotinylated (biotin NovaTag resin), site not given here, Second HPLC fraction; also called HGIVG f2) [L1b] |
| – | 53.3 | – | 7.78 | – | GEVVP (triazole (positions not given here); not fully specified (bridges); also: 1,4-triazole macrocycle, ring places not given here, propargylglycine click handle, place not given here, biotinylated (biotin NovaTag resin), site not given here, also called GEVVP f1) [L3a] |
| 5.23 | – | 3.72 | – | – | VEVYP (triazole (positions not given here); not fully specified (bridges); also: 1,4-triazole macrocycle, ring places not given here, propargylglycine click handle, place not given here, biotinylated (biotin NovaTag resin), site not given here, also called VEVYP f1) [L5a] |
| 7.8 | – | – | 6.87 | – | VEVYP (triazole (positions not given here); not fully specified (bridges); also: 1,4-triazole macrocycle, ring places not given here, propargylglycine click handle, place not given here, biotinylated (biotin NovaTag resin), site not given here, also called VEVYP f2) [L5b] |
| – | 19.6 | – | – | – | VEVPY (triazole (positions not given here); not fully specified (bridges); also: 1,4-triazole macrocycle, ring places not given here, propargylglycine click handle, place not given here, biotinylated (biotin NovaTag resin), site not given here, also called VEVPY f1) [L4a] |
| 18.9 | 16 | 159 | – | Avg F635 (full centroid) [6]: 17800; Avg F635 (full lane) [6]: 16000; avg F635 (left part centroid) [6]: 15600; avg F635 (middle part centroid) [6]: 19400; avg F635 (right part centroid) [6]: 18500 | VTVPY (triazole (positions not given here); not fully specified (bridges); also: macrocycle closed by 1,4-triazole, propargylglycine click handle, other ring residues not given here, also called VTVPY) [L6] |
| – | 31.5 | – | 25.8 | – | VQVPY (triazole (positions not given here); not fully specified (bridges); also: 1,4-triazole macrocycle, ring places not given here, propargylglycine click handle, place not given here, biotinylated (biotin NovaTag resin), site not given here, also called VQVPY f1) [L7a] |
| – | 30.3 | – | 44.2 | – | VQVPY (triazole (positions not given here); not fully specified (bridges); also: 1,4-triazole macrocycle, ring places not given here, propargylglycine click handle, place not given here, biotinylated (biotin NovaTag resin), site not given here, also called VQVPY f2) [L7b] |
| 2.8 | 8.44 | – | 25.6 | – | TDNFY (triazole (positions not given here); not fully specified (bridges); also: macrocycle closed by 1,4-triazole, propargylglycine click handle, other ring residues not given here, also called TDNFY) [L8] |
| – | 32.7 | – | – | – | VEVPY (triazole (positions not given here); not fully specified (bridges); also: 1,4-triazole macrocycle, ring places not given here, propargylglycine click handle, place not given here, biotinylated (biotin NovaTag resin), site not given here, also called VEVPY f2) [L4b] |
| – | 19.4 | – | – | – | GEVVP (triazole (positions not given here); not fully specified (bridges); also: 1,4-triazole macrocycle, ring places not given here, propargylglycine click handle, place not given here, biotinylated (biotin NovaTag resin), site not given here, also called GEVVP f2) [L3b] |
